± gives the half width of the 95% confidence interval.
Assay: folding stability dG unfold from chymotrypsin proteolysis; higher = more stable
Outline: (§1)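 K50 was inferred by Bayesian fitting of sequencing counts obtained after protease digestion of designed mini-proteins. Unfolding free energy was derived by comparison with a sequence-predicted unfolded-state K50 and a shared folded-state K50, for each protease or both combined. The mini-proteins were under 80 residues, had no cysteine, were carried in a PA-tagged cDNA display construct, and were kept only if AlphaFold2 dimer inter-PAE exceeded 15.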

Row | Sequence | folding stability dG unfold [kcal/mol]
1 | SAGGFTIEFPLPPGESPDEIKDEIMDMVRPIADEHGFKNVKIPITNVRWQPPGRRRFTINIEIKFPGSAGGS [r8_184_TrROS] | 0.465 ± 0.24
2 | SAIRIEEITIDPEYGVITITFDYPMPPGAEKIKFKIFIDGFKIKEIEYEVDPENGWVRMTLTIRIPKDASAG [r14_244_TrROS] | 6.5 ± 0.44
3 | SAGGSAGGSMKIKVEVEMEKVKDPKKKGEYIYKMKIKKVEIELSEEEKEKLKELAEKLGIEVESAGGSAGGS [r12_249_TrROS_Hall] | 2.35 ± 0.074
4 | SAGGSVVTTTFTYPDGTVVTTTTTPRPETLLTTTTTTTFYPDKPVKVAPGKEVVTTVTTTTTTVTPAASAGG [r13_780_JUSTAS] | 0.574 ± 0.12
5 | SAGGMTIEKEDGKYRITITINGKTYTFTIPKELENKTEEEIAAELAAELAEKFGLKEITEIKIEKVPSAGGS [r8_402_TrROS_Hall] | 3.559 ± 0.025
6 | SAGKKVTILIVVPETEEEAKKLAEELAKELAEKTGLEKVEVKVVPKGMTLEQLKELAKENNVDLVILVSAGG [r19_89_TrROS_Hall] | 3.09 ± 0.15
7 | SAGGSAMVRLPDGTLVIDVKLPEDRPDAKVTVTVLEDGSPVGSVDVNTGKVTISVSPGVSVSITVESAGGSA [r15_180_JUSTAS] | 1.53 ± 0.046
8 | SAGGPMPPGQKRTVTIDLEYNPENGGYRVRAYSPGGKPIEEFPFPRDNLEEFAEEFANKGVDYVEIEPSAGG [r13_765_TrROS] | 0.528 ± 0.18
9 | SAAVPSDLTLTTLETKKEKFDDNEYTVVKSVLLRPGAPGATVTEYTTVYKGDKVVETKPSERTVSPALLSAG [r14_651_JUSTAS] | 0.209 ± 0.13
10 | SAGGMPAKAVTTKLPDGTDRITVTTVGSGKSATIPVPAGELKVIEIEEGEETLSVSFVEVGPDNPELGSAGG [r13_122_TrMRF] | 0.374 ± 0.014
11 | SAGGMLTLTDPETGVPYTGTPVSTTTTTVVLTTPDGTPVETVTVTVTTYEFTAPDGTPVTLTETTGLSAGGS [r8_214_JUSTAS] | 2.27 ± 0.025
12 | SAGGSAGGSAGGMEKVTEVKPVATLPNGTVVTETLVTYTAPNGPEIGEEVVLTEDPVPKSAGGSAGGSAGGS [r10_941_JUSTAS] | -0.408 ± 0.2
13 | SAGGSAGGSWDRIKDALRKYGFPPENVKIEFETYPNGNMNVMIRHNGEQIPRNRINKAIQELMSAGGSAGGS [r12_175_TrROS] | 1.46 ± 0.096
14 | MVLDAGISRKDFINNKPIKVETALKKLAEILGGPNFKPKVKPSKKDYLVAVIELPDGRKLLLKDDKDIKISS [r1_168_TrMRF] | -0.108 ± 0.14
15 | SAGGSAGGSAEYIVVNSDEQLKALKELGGVKEVERKENFVVVEFPDIPPELREKLLEVIKESAGGSAGGSAG [r3_398_TrMRF] | -0.805 ± 0.94
16 | SAGGSAKITIEYDPETGTITIKVELTNEDNGKKVTKEYEIKVDGKLIRIKIDANTGEIVEIEVLPPSAGGSA [r2_331_TrROS_Hall] | 3.38 ± 0.13
17 | SAGGSAKTIKIWIPVKGMTPEMLEEIARDILEELGMKVDIEPHPGDGYIEVTFKLPGKDIEIIIPWSAGGSA [r15_168_TrROS] | 3.04 ± 0.1
18 | SKTYTAEEIKKLFPNIKKVEVKDGKVRLTVENENGEKFEIEITFEAPKPEPEVEEEVEKKKEEELSEEDLSA [r9_427_TrROS_Hall] | 2.62 ± 0.14
19 | SAMKETEIPDPVTGNTYTVIDFDDATVVIKNYPDSLTITIIPPPSNTSTTIPMKPGEEEKVLKELGIPPSAG [r14_4_JUSTAS] | 0.316 ± 0.23
20 | SAGMVEVSVTVSPRADGTITVTITLTKTFPVKDSKGNLYLETTTKTVTVPVTSLEEAPVIVKEVIDKLSAGG [r19_218_JUSTAS] | 3.23 ± 0.14
21 | SAGGSAGGMVTSTDPATGIVYSLDPTTGVWSAQTVTLPPITIPVSEVPELLKALPPGTPILVLASAGGSAGG [r6_104_JUSTAS] | 1.16 ± 0.064

Assay: folding stability dG unfold from trypsin proteolysis; higher = more stable
Outline: as §1

Row | Sequence | folding stability dG unfold [kcal/mol]
22 | SAGGMEIVSSGSLEEAIALLKENPNTTITVTLPDGTTVVIKVTQNGEGPYIYDVSTEPPAAAPSPSLVSAGG [r13_56_JUSTAS] | 2.15 ± 0.096
23 | SAGGKYVIIMFPLPPNLEVEIEYPGVPVHRTPNGSLMFQIPPNEPIRIKIKNPNGEEEELPINIFPLSAGGS [r8_72_TrROS] | 1.77 ± 0.1
24 | SAGGSAGGSAGGGKLRIKLYHPETGKISEIEVEVPDKPLEEVLEELEKELGVEVVDASLESAGGSAGGSAGG [r7_590_TrMRF] | 0.941 ± 0.054
25 | SAGGKPKVEIKIEEIPVDGELYLVIEIKVEEKNATLTLTLPNGEEITMEFDEETGTVRIIARIPLEDLSAGG [r13_380_TrROS_Hall] | 3.24 ± 0.29
26 | SAGGIDLDDLPPGDIFIFIKIKMEPVKVDDPDGKEYNRMEIEIFIFRFDPPNGKIQFEPIPMEFYIRSAGGS [r8_486_TrROS] | 2.83 ± 0.25
27 | SAGGSAGGGSLKYTPGVHRLTYYDPATGTTTTLTFTSEEEALEYLKKKYPDVPWKRNPDGTWVLSAGGSAGG [r6_288_JUSTAS] | 1.62 ± 0.059
28 | SAIEITVMSDSPEEAKEKAKEFANWLQNRMRRDGLPDMPIPIKIEVIPVPPPKPKPKRDPDDGEWKPDPSAG [r14_475_TrROS] | -0.415 ± 0.57
29 | SAGGSAIKLPPGVKIEYHMHPDGYMTITIEYPNGRPIEIPMRMDPNGPREMTPDQIRDFIKELLKNSAGGSA [r15_780_TrROS] | 2.42 ± 0.038
30 | SAGFTIEIENEDGKKITFRFPGWKIEIYPKDGIIMMRYPEENMSIMIKVDPNKIKIQVYDGGKWRWFPISAG [r5_786_TrROS] | 2.86 ± 0.13
31 | SAPDWVKIKFPFRFYNPDPDGKPMAKMKLEIEVYPSPGAYMAKIEDPNFGMKITFPFDSPEEVKDFLQNSAG [r14_508_TrROS] | 1.25 ± 0.083
